Test results published in patent US10722576 (dated 2020).
Like-named read-outs stand apart in the source and are kept apart here.

T1: human TfR-2 (human, UniProt Q9UP52)
T1 chain: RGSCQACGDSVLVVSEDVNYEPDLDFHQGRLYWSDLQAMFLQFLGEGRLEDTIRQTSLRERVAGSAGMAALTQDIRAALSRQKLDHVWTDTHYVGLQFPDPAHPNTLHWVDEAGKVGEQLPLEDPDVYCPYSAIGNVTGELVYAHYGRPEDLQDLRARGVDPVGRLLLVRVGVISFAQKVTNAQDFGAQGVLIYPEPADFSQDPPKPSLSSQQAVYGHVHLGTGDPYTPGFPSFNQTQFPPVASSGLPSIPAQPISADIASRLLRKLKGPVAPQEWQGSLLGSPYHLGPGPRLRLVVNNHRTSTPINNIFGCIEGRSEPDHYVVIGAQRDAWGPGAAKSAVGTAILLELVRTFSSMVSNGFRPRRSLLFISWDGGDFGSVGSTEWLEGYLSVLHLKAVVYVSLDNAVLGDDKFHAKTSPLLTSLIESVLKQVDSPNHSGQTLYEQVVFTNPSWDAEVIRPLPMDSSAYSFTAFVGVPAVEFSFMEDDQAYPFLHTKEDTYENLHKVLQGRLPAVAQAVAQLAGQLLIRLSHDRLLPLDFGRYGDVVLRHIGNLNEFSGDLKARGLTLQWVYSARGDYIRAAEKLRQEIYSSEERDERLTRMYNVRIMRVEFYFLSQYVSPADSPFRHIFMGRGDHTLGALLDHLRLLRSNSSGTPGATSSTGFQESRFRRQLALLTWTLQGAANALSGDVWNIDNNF

B1: F02-hFc (designed binder)
chain: ARVDQTPQTITKETGESLTINCVLRDNDCTLSSTHWYRKKSGSTNEERISKGGRYVETVNSGSKSFSLRINDLTVEDSGTYRCNVYAMTRNWWCDVYGGGTVVTVNAASGA
B2: H01-Fc (designed binder)
chain: ARVDQTPQTITKETGESLTINCVLRDSNCALSSTYWYRKKSGSTKEESISKGGRYVETVNSGSKSFSLRINDLTVEDSGTYRCNVWHDLVWSVCTTDVYGGGTVVTVNAASGA

Legend:
Experiment in all cases: ELISA
mouse TfR-1 [1] = target: T2, mouse TfR-1 (mouse, UniProt Q62351)
T2 sequence (Q62351 89-763): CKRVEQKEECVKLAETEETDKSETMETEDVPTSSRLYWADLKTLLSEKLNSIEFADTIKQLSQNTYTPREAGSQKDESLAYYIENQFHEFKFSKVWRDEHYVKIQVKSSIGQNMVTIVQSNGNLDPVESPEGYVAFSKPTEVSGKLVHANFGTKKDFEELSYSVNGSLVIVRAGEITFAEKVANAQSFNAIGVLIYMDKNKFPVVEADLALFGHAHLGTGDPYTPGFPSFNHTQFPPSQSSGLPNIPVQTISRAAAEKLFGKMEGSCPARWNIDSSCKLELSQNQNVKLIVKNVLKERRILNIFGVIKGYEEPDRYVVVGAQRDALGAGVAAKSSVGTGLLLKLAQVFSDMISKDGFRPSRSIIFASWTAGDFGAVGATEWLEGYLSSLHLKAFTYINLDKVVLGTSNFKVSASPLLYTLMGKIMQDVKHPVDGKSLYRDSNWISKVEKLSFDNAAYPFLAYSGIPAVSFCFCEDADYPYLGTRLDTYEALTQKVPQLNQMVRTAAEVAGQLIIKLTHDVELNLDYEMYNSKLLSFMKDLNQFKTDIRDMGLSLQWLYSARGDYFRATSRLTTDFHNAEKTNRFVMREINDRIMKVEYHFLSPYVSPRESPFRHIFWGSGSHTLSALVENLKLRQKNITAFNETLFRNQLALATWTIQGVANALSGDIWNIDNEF

human TfR-1 [2] = target: T3, human TfR-1 (human, UniProt P02786)
T3 sequence (P02786 89-760): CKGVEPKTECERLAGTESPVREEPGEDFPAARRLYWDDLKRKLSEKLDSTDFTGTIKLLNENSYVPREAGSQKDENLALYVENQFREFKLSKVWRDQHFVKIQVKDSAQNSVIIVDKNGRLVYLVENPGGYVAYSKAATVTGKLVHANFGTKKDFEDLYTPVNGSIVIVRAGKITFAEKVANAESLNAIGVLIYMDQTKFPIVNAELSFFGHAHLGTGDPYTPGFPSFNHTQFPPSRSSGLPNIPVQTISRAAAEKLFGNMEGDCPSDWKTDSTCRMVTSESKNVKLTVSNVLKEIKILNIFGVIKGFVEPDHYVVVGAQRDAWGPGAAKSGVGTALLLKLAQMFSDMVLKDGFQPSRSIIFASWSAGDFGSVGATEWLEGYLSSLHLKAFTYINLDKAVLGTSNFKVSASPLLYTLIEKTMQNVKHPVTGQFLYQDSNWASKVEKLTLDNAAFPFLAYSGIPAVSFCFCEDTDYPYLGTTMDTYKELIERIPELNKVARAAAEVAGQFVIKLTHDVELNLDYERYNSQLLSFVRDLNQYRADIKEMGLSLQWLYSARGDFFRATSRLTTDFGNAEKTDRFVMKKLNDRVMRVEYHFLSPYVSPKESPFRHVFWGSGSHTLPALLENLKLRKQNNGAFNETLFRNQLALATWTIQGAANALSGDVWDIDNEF

mouse TfR-1 [3] = target: T2, mouse TfR-1; remark: listed apart in the source
human TfR-1 [4] = target: T3, human TfR-1; remark: listed apart in the source
human TfR-1 [5] = target: T3, human TfR-1; remark: listed apart in the source
human TfR-2 = target: T1, human TfR-2

Binder	EC50 (mouse TfR-1 [1]) [nM]	EC50 (human TfR-1 [2]) [nM]	EC50 (mouse TfR-1 [3]) [nM]	EC50 (human TfR-1 [4]) [nM]	EC50 (human TfR-1 [5]) [nM]	binding result (human TfR-2)
B1	34.3	~100	34.2	9	26.3	no binding
B2	–	~100	–	–	–	no binding
